“Also recorded” adds a separate entry of the source.
B1: RCAS1: peptide vaccine of RCAS1 #13, #14, #21, #30, #31, 50 ug per peptide with CFA/IFA (peptide)
chain 1: EPDYFKDMTPTIRKTQKIVI
chain 2: DYFKDMTPTIRKTQKIVIKKR
chain 3: LFKFCTCLATVFSFLKRLIC
chain 4: GFSSRLAATQDLPFIHQSSELGD
chain 5: EEEDAAWQAEEVLRQQKLADR
modifications: with CFA/IFA adjuvant
notes: peptide vaccine of RCAS1 #13, #14, #21, #30, #31, 50 ug per peptide with CFA/IFA
B2: PRL3: peptide vaccine of PRL-3 #1, #2, #3, #4, #29, 50 ug per peptide with CFA/IFA (peptide)
chain 1: VSYKHMRFLITHNPTNATL
chain 2: FIEDLKKYGATTVVRVCEVTY
chain 3: PCVAGLGRAPVLVALALIES
chain 4: MKYEDAIQFIRQKRRGAIN
chain 5: VEDWLSLVKAKFCEA
modifications: with CFA/IFA adjuvant
notes: peptide vaccine of PRL-3 #1, #2, #3, #4, #29, 50 ug per peptide with CFA/IFA
B3: VCP: peptide vaccine of VCP #18, #19, #20, #23, 50 ug per peptide with CFA/IFA (peptide)
chain 1: IRMNRVVRNNLRVRLGDVISI
chain 2: LQLFRGDTVLLKGKKRR
chain 3: YFLEAYRPIRKGDIFLVRG
chain 4: VEFKVVETDPSPYCIVAPDT
modifications: with CFA/IFA adjuvant
notes: peptide vaccine of VCP #18, #19, #20, #23, 50 ug per peptide with CFA/IFA

What was measured:
[1] = tested on: small bowel tumor burden in APCmin mice; assay: APCmin mouse model: small bowel tumor count after peptide vaccination; assay type: in vivo; conditions: for effect on small bowel tumor burden (tumor count): APCmin mice, vs CFA/IFA control, 50 ug per peptide s.c.; for peptide efficacy, APCmin Small Bowel (Spontaneous): summary table, Yes/No
Method: (§1) Offspring from APCmin were genotyped by PCR for the presence of the Min mutation using primers as follows: Wild-Type: 5′-[…]-3′ (SEQ ID NO: 46), Common 5′-[…]-3′ (SEQ ID NO: 47), Mutant: 5′-[…]-3′ (SEQ ID NO: 48). Both male and female mice testing positive for the Min mutation were included in the study and randomized into groups.
(§2) At 4-6 weeks of age, mice were immunized in CFA/IFA, PBS, and vaccine groups. Each group received subcutaneous injections (100 ul PBS, 50 ul CFA with 50 ul PBS, 50 ug per peptide with 50 ul CFA) once every 7-10 days for a total of three doses and one booster was given 4-5 weeks after the third vaccine. See Table 5 for peptides included in vaccine compositions. CFA was replaced with IFA after the first vaccine. All mice were sacrificed at 14 to 17 weeks of age, the gastrointestinal tracts were collected and tumors counted.

[2] = tested on: colon tumor burden in APCmin mice; assay: APCmin mouse model: colon tumor count after peptide vaccination; assay type: in vivo; conditions: for effect on colon tumor burden (tumor count): APCmin mice, vs CFA/IFA control, 50 ug per peptide s.c.; for peptide efficacy, APCmin Colon (Spontaneous): summary table, Yes/No
Method: as §1, §2

[3] = tested on: colon tumor burden in AOM mice (Azoxymethane + FVB); assay: AOM mouse model: colon tumor count after peptide vaccination; assay type: in vivo; conditions: for effect on colon tumor burden (tumor count): AOM treated FVB mice, vs control group (CFA/IFA; PBS for IGF1R, PRL3, RCAS1); for peptide efficacy, Azoxymethane + FVB (Induced): summary table, Yes/No
Method: AOM mouse in-vivo experiments. At 6 weeks of age, FVB mice were immunized in CFA/IFA, PBS, and vaccine groups. Each group received subcutaneous injections (100 ul PBS, 50 ul CFA with 50 ul PBS, 50 ug per peptide with 50 ul CFA) once every 10-14 days for a total of three doses and a booster was given every 4-5 weeks after the third vaccine. See Table 7 for peptides included in vaccine compositions. CFA was replaced with IFA after the first vaccine. Seven days after the third vaccine, mice were injected with Azoxymethane (AOM) at 10 mg/kg, twice weekly for 6 weeks. At 26 weeks of age, all mice were sacrificed and tumors in the colon were counted.

[4] = tested on: MC-38 cells (murine adenocarcinoma); assay: MC-38 tumor implant model: tumor volume after peptide vaccination; assay type: in vivo, C57Bl/6 mice; conditions: for effect on tumor volume: MC-38 tumor implant in C57Bl/6 mice, vs CFA/IFA; for peptide efficacy, MC-38 + B6 (Tumor Implant): summary table, Yes/No
Method: MC-38 tumor implant in-vivo experiments. At 6 weeks of age, mice were immunized in CFA/IFA, PBS, and vaccine groups. Each group received subcutaneous injections (100 ul PBS, 50 ul CFA with 50 ul PBS, 50 ug per peptide with 50 ul CFA) once every 10-14 days for a total of three doses. See Table 9 for peptides included in vaccine compositions. CFA was replaced with IFA for the second and third vaccines. Two weeks after the final vaccine, we subcutaneously implanted 4×10^4 MC-38 cells (murine adenocarcinoma), and measured tumor growth with Vernier calipers 2-3 times per week. Tumor volume was calculated as length×width×height×π/6, which is the standard volume calculation of an ellipsoid. Mice were sacrificed when tumor size in control mice reached greater than 1000 mm^3.

[5] = tested on: small bowel tumor burden in APCmin mice; assay: APCmin survival study: small bowel tumor count at sacrifice; assay type: in vivo; conditions: boosters every 4-5 weeks, vs CFA/IFA
Method: At 4-6 weeks of age, mice were immunized with CFA/IFA, PBS, and vaccine groups. Each group received subcutaneous injections (100 ul PBS, 50 ul CFA with 50 ul PBS, 50 ug per peptide with 50 ul CFA) once every 7-10 days for a total of three doses and a booster vaccine was given every 4-5 weeks after the third vaccine. See Table 6 for peptides included in vaccine compositions. CFA was replaced with IFA after the first vaccine. […] At sacrifice, small intestines were collected and small bowel tumors counted.

Molecule	effect on small bowel tumor burden (tumor count) [1]	peptide efficacy, APCmin Small Bowel (Spontaneous) [1]	effect on colon tumor burden (tumor count) [2]	peptide efficacy, APCmin Colon (Spontaneous) [2]	effect on colon tumor burden (tumor count) [3]	peptide efficacy, Azoxymethane + FVB (Induced) [3]	effect on tumor volume [4]	peptide efficacy, MC-38 + B6 (Tumor Implant) [4]	effect on small bowel tumor burden (tumor count) [5]
B1	vaccine efficacy; also recorded: significantly inhibits	Yes	lack of RCAS1 vaccine efficacy; also recorded: does not significantly inhibit	No	lack of RCAS1 vaccine efficacy; also recorded: do not significantly inhibit	No	significantly inhibits	Yes	–
B2	vaccine efficacy; also recorded: significantly inhibits	Yes	lack of PRL3 vaccine efficacy; also recorded: does not significantly inhibit	No	lack of PRL3 vaccine efficacy; also recorded: does not significantly inhibit	No	significantly inhibits	Yes	does not significantly inhibit
B3	vaccine efficacy; also recorded: significantly inhibits	Yes	vaccine efficacy; also recorded: significantly inhibits	Yes	lack of VCP vaccine efficacy; also recorded: does not significantly inhibit	No	does not significantly inhibit	No	–

— patent US10759836B2, “Cancer vaccine compositions and methods of use thereof” (UNIVERSITY OF WASHINGTON, priority 2014, dated 2020)
